In FireProtDB (doi:10.1016/j.jmb.2003.10.041):

B1: Bacteriorhodopsin, P02945 (parent)
chain: MLELLPTAVEGVSQAQITGRPEWIWLALGTALMGLGTLYFLVKGMGVSDPDAKKFYAITTLVPAIAFTMYLSMLLGYGLTMVPFGGEQNPIYWARYADWLFTTPLLLLDLALLVDADQGTILALVGADGIMIGTGLVGALTKVYSYRFVWWAISTAAMLYILYVLFFGFTSKAESMRPEVASTFKVLRNVTVVLWSAYPVVWLIGSEGAGIVPLNIETLLFMVLDVSAKVGFGLILLRSRAIFGEAEAPEPSAGDGAAATSD

Variants of: B1
Conditions: Halobacterium salinarum (strain ATCC 700922 / JCM 11081 / NRC-1); pH 6; 25 °C; SDS; Absorbance; sodium phosphate 10 mM; reversible: yes (90%); structure 2BRD; whole UniProt chain shown
With MLELLPTAVEGVSQAQITGRPEWIWLALGTALMGLGTLYFLVKGMGVSDPDAKKFYAITALVPAIAFTMYLSMLLGYGLTMVPFGGEQNPIYWARYADWLFTTPLLLLDLALLVDADQGTILALVGADGIMIGTGLVGALTKVYSYRFVWWAISTAAMLYILYVLFFGFTSKAESMRPEVASTFKVLRNVTVVLWSAYPVVWLIGSEGAGIVPLNIETLLFMVLDVSAKVGFGLILLRSRAIFGEAEAPEPSAGDGAAATSD [T60A] the “ddG of mutation (higher = less stable)” value was 4.18 kJ/mol.
With MLELLPTAVEGVSQAQITGRPEWIWLALGTALMGLGTLYFLVKGMGVSDPDAKKFYAIATLVPAIAFTMYLSMLLGYGLTMVPFGGEQNPIYWARYADWLFTTPLLLLDLALLVDADQGTILALVGADGIMIGTGLVGALTKVYSYRFVWWAISTAAMLYILYVLFFGFTSKAESMRPEVASTFKVLRNVTVVLWSAYPVVWLIGSEGAGIVPLNIETLLFMVLDVSAKVGFGLILLRSRAIFGEAEAPEPSAGDGAAATSD [T59A] the “ddG of mutation (higher = less stable)” value was 9.2 kJ/mol.
With MLELLPTAVEGVSQAQITGRPEWIWLALGTALMGLGTLYFLVKGMGVSDPDAKKFYAITTAVPAIAFTMYLSMLLGYGLTMVPFGGEQNPIYWARYADWLFTTPLLLLDLALLVDADQGTILALVGADGIMIGTGLVGALTKVYSYRFVWWAISTAAMLYILYVLFFGFTSKAESMRPEVASTFKVLRNVTVVLWSAYPVVWLIGSEGAGIVPLNIETLLFMVLDVSAKVGFGLILLRSRAIFGEAEAPEPSAGDGAAATSD [L61A] the “ddG of mutation (higher = less stable)” value was 0.418 kJ/mol.
With MLELLPTAVEGVSQAQITGRPEWIWLALGTALMGLGTLYFLVKGMGVSDPDAKKFYAITTLAPAIAFTMYLSMLLGYGLTMVPFGGEQNPIYWARYADWLFTTPLLLLDLALLVDADQGTILALVGADGIMIGTGLVGALTKVYSYRFVWWAISTAAMLYILYVLFFGFTSKAESMRPEVASTFKVLRNVTVVLWSAYPVVWLIGSEGAGIVPLNIETLLFMVLDVSAKVGFGLILLRSRAIFGEAEAPEPSAGDGAAATSD [V62A] the “ddG of mutation (higher = less stable)” value was -2.93 kJ/mol.
With MLELLPTAVEGVSQAQITGRPEWIWLALGTALMGLGTLYFLVKGMGVSDPDAAKFYAITTLVPAIAFTMYLSMLLGYGLTMVPFGGEQNPIYWARYADWLFTTPLLLLDLALLVDADQGTILALVGADGIMIGTGLVGALTKVYSYRFVWWAISTAAMLYILYVLFFGFTSKAESMRPEVASTFKVLRNVTVVLWSAYPVVWLIGSEGAGIVPLNIETLLFMVLDVSAKVGFGLILLRSRAIFGEAEAPEPSAGDGAAATSD [K53A] the “ddG of mutation (higher = less stable)” value was 1.26 kJ/mol.
With MLELLPTAVEGVSQAQITGRPEWIWLALGTALMGLGTLYFLVKGMGVSDPDAKKFAAITTLVPAIAFTMYLSMLLGYGLTMVPFGGEQNPIYWARYADWLFTTPLLLLDLALLVDADQGTILALVGADGIMIGTGLVGALTKVYSYRFVWWAISTAAMLYILYVLFFGFTSKAESMRPEVASTFKVLRNVTVVLWSAYPVVWLIGSEGAGIVPLNIETLLFMVLDVSAKVGFGLILLRSRAIFGEAEAPEPSAGDGAAATSD [Y56A] the “ddG of mutation (higher = less stable)” value was 5.44 kJ/mol.
With MLELLPTAVEGVSQAQITGRPEWIWLALGTALMGLGTLYFLVKGMGVSDADAKKFYAITTLVPAIAFTMYLSMLLGYGLTMVPFGGEQNPIYWARYADWLFTTPLLLLDLALLVDADQGTILALVGADGIMIGTGLVGALTKVYSYRFVWWAISTAAMLYILYVLFFGFTSKAESMRPEVASTFKVLRNVTVVLWSAYPVVWLIGSEGAGIVPLNIETLLFMVLDVSAKVGFGLILLRSRAIFGEAEAPEPSAGDGAAATSD [P50A] the “ddG of mutation (higher = less stable)” value was 0.837 kJ/mol.
For MLELLPTAVEGVSQAQITGRPEWIWLALGTALMGLGTLYFLVKGMGVSDPAAKKFYAITTLVPAIAFTMYLSMLLGYGLTMVPFGGEQNPIYWARYADWLFTTPLLLLDLALLVDADQGTILALVGADGIMIGTGLVGALTKVYSYRFVWWAISTAAMLYILYVLFFGFTSKAESMRPEVASTFKVLRNVTVVLWSAYPVVWLIGSEGAGIVPLNIETLLFMVLDVSAKVGFGLILLRSRAIFGEAEAPEPSAGDGAAATSD [D51A], the “ddG of mutation (higher = less stable)” value was 2.09 kJ/mol.
In the case of MLELLPTAVEGVSQAQITGRPEWIWLALGTALMGLGTLYFLVKGMGVSAPDAKKFYAITTLVPAIAFTMYLSMLLGYGLTMVPFGGEQNPIYWARYADWLFTTPLLLLDLALLVDADQGTILALVGADGIMIGTGLVGALTKVYSYRFVWWAISTAAMLYILYVLFFGFTSKAESMRPEVASTFKVLRNVTVVLWSAYPVVWLIGSEGAGIVPLNIETLLFMVLDVSAKVGFGLILLRSRAIFGEAEAPEPSAGDGAAATSD [D49A], the “ddG of mutation (higher = less stable)” value is reported as 3.77 kJ/mol.
In the case of MLELLPTAVEGVSQAQITGRPEWIWLALGTALMGLGTLYFLVKGMGVSDPDAKKFYAATTLVPAIAFTMYLSMLLGYGLTMVPFGGEQNPIYWARYADWLFTTPLLLLDLALLVDADQGTILALVGADGIMIGTGLVGALTKVYSYRFVWWAISTAAMLYILYVLFFGFTSKAESMRPEVASTFKVLRNVTVVLWSAYPVVWLIGSEGAGIVPLNIETLLFMVLDVSAKVGFGLILLRSRAIFGEAEAPEPSAGDGAAATSD [I58A], the “ddG of mutation (higher = less stable)” value is reported as 7.95 kJ/mol.
With MLELLPTAVEGVSQAQITGRPEWIWLALGTALMGLGTLYFLVKGMGVSDPDAKAFYAITTLVPAIAFTMYLSMLLGYGLTMVPFGGEQNPIYWARYADWLFTTPLLLLDLALLVDADQGTILALVGADGIMIGTGLVGALTKVYSYRFVWWAISTAAMLYILYVLFFGFTSKAESMRPEVASTFKVLRNVTVVLWSAYPVVWLIGSEGAGIVPLNIETLLFMVLDVSAKVGFGLILLRSRAIFGEAEAPEPSAGDGAAATSD [K54A] the “ddG of mutation (higher = less stable)” value was 6.69 kJ/mol.
For MLELLPTAVEGVSQAQITGRPEWIWLALGTALMGLGTLYFLVKGMGVSDPDAKKAYAITTLVPAIAFTMYLSMLLGYGLTMVPFGGEQNPIYWARYADWLFTTPLLLLDLALLVDADQGTILALVGADGIMIGTGLVGALTKVYSYRFVWWAISTAAMLYILYVLFFGFTSKAESMRPEVASTFKVLRNVTVVLWSAYPVVWLIGSEGAGIVPLNIETLLFMVLDVSAKVGFGLILLRSRAIFGEAEAPEPSAGDGAAATSD [F55A], the “ddG of mutation (higher = less stable)” value was 6.69 kJ/mol.
